The target in the assay is recombinant human IFN-γ (human). Kind of assay: cell-based or functional assay.
Chain of recombinant human IFN-γ (human) (P01579 24-161): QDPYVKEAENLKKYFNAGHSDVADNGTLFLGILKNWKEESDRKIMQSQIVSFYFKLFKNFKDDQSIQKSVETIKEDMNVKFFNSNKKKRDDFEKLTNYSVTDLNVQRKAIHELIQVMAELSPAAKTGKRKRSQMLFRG

B1: EI-001 (2A6Q), human monoclonal anti-IFN-γ antibody (antibody, human IgG1, lambda, V domains shown)
VH: EVQLVESGGGLVKPGDSLTVSCVASGFTFSNYFIHWVRQAPGKGLEWVATISGRTKYMFYSDSLRGRFTVSRDNAQNSVYLHMSSLRGEDTALYYCVRGYDHSDSNSAADLLHWGRGTLVTVSS
VL: NFMLTQPLSVSGYPGKTIVISCVRSSGSVASHYVQWFQQRPGSAPAMVIYEDSHRPSGIPDRFSGSVDASSNSASLTISGLKTEDEADYFCQSYYGNNQVLFGGGTKLTVLG
For B1, the “EC50 of EI-001 restoring viability of human primary melanocytes cultured with 30 ng/mL IFN-γ (CellTiter-Glo, 72 hrs)” value amounted to 0.00521 µg/mL and the “EC50 restoring melanogenesis (melanin content, absorbance at 470 nm) of human primary melanocytes cultured with 20 ng/mL IFN-γ for 7 days” value was found to be 0.129 µg/mL.

For the origin of these results see patent publication US20250320288A1 (ELIXIRON IMMUNOTHERAPEUTICS HONG KONG, published 2025).
